From US6569841B1, “Ion exchange tumor targeting (IETT)” (MAP Medical Technologies OY, priority 1998, dated 2003)

System: bladder tumor tissue (epidermal growth factor positive superficial transitional cell bladder carcinoma)
Experiment: Radioactive uptake in bladder tumor vs normal bladder tissue after instillation in the bladder of patients (ttn ratio)
Settings: 200 mL of 0.25 μg/mL in saline instilled in the bladder for 30 minutes, washed out, mean values
Procedure: Nine patients having epidermal growth factor positive superficial transitional cell bladder carcinoma were studied.
200 mL of the polymers, of the concentration 0.25 μg/mL in saline, were instilled through an urethral catether and kept in the bladder for 30 minutes and were then carefully washed out with approximately 400 mL saline. The patients were then operated on and samples were taken from normal bladder tissue and bladder tumor tissue, respectively. The samples were weighed and counted in gamma counter and the radioactive uptake was calculated as cpm/g tissue. The target to non-target (ttn) ratio was calculated.

In the case of Tc-99m-lysine dextran, the “radioactive uptake, ttn (target to non-target ratio, tumor vs normal bladder tissue, cpm/g)” value is reported as “highest target to non-target ratio”.
